The record followed here is the RNAGym collection of RNA variant scans (doi:10.7554/elife.80360).

B1: HDV Ribozyme (parent)
chain: GGCCGGCAUGGUCCCAGCCUCCUCGCUGGCGCCGGCUGGGCAACAUUCCGAGGGGACCGUCCCCUCGGUAAUGGCGAAUGGGACCCA

The variants in this data set derive from B1. Kind of data set: self-cleavage, relative activity (ratio to wild type); higher = more cleavage; co-transcriptional.
With GGACGGCAUGGUCCCAGCCUCCUCGCUGGCGCCGGCUGGGCAACAUUCCGAGUGGACCGUCCCCUCGGUAAUGGCGAAUGGGACCCA [C3A G53U], the self-cleavage came out at 0.527. With GGCCGGCAUGGUCCUAGCAUCCUCGCUGGCGCCGGCUGGGCAACAUUCCGAGGGGACCGUCCCCUCGGUAAUGGCGAAUGGGACCCA [C15U C19A], the self-cleavage is 0.128. In the case of GGCCGGCAAGGUCCCACCCUCCUCGCUGGCGCCGGCUGGGCAACAUUCCGAGGGGACCGUCCCCUCGGUAAUGGCGAAUGGGACCCA [U9A G17C] it was 0.297; in that of GGCCGGCAUGGUCCCAGCCUCCUCGCUGGCGCCGGCUGGGCAACAUGCCGAGGGGACCGUCCCCUCGGUAACGGCGAAUGGGACCCA [U47G U72C], 0.554; in that of GGCCGGCAUGGUCCCAGUCUCCUCGCUGGCGCCGGCUGGGCAACAUUCCGAGGGGACCGUCCCCUCGGUAAUGGCGAAUGGGAUCCA [C18U C84U], 0.44. Under GGCCGGCAUUGUCCCAGCCUCCUCGCUGGCGCCGGCUGGGCAACAUUGCGAGGGGACCGUCCCCUCGGUAAUGGCGAAUGGGACCCA [G10U C48G] stands 0.767; under GGCCGGCAUGGUCCCAGCCUCCUCGCUGGCGCCGGCUGGGCAACAUUCCGAGGGGACCGUCCCCUCGGUAAUGGCGCAGGGGACCCA [A77C U79G], 0.151. GGCCGGCAUGGUCCCAGCCUCCUCGCUGGCGCCGGCUGGGCAACAUUCCCAGGGGACCCUCCCCUCGGUAAUGGCGAAUGGGACCCA [G50C G59C]: the self-cleavage stood at 1.16.

Turning to GGCCGGCAUGGUCCCAGCCUCCUCGCUGGAGCCAGCUGGGCAACAUUCCGAGGGGACCGUCCCCUCGGUAAUGGCGAAUGGGACCCA [C30A G34A], the self-cleavage turned out to be 0.0801. Under GGCCGUCAUGGUCCCAGCCUCCUCGCUGGCGCCGGCUGGGCAAGAUUCCGAGGGGACCGUCCCCUCGGUAAUGGCGAAUGGGACCCA [G6U C44G] stands 0.268; under GGCCGGCAUGGUCCCAGCCUCCUCGCUGGCGCCGGCUGGGCAACAUUCCGAGCGGACCGUCCCCUCGGUAAUGGCGAAAGGGACCCA [G53C U79A], 0.538; under GGCCGGCAUCGUCCCAGCCUCCUCGCUGGCGCCGGCUGGGCAACAUUCCGAGGGGACCGUCCCCACGGUAAUGGCGAAUGGGACCCA [G10C U65A], 0.665. In the case of GGCCGGCAUGGUCCCAGCCUCCUCGCUGGCGCCGGCUGGGCAACAUUCCGAGGGCACCGUCCCCUCGGGAAUGGCGAAUGGGACCCA [G55C U69G] it was 0.984; in that of GGCCGGCAUCGUCCCAGCCUCCUCGCUGGCGCCGGCUGGGCAACAUUCCGAGGGGACCGUCCCCUCGGUAAUGGCGAAUAGGACCCA [G10C G80A], 0.166; in that of GGCCCGCAUGGUCCCAGCCUCGUCGCUGGCGCCGGCUGGGCAACAUUCCGAGGGGACCGUCCCCUCGGUAAUGGCGAAUGGGACCCA [G5C C22G], 0. In the case of GGCCGGCAUGGUCCCAGCCUCCUCGCUGGCGCCGGCUCGGCAACAUUCCGAGGGGACCGUCCCCUCGGUAAAGGCGAAUGGGACCCA [G38C U72A], the self-cleavage was determined as 0.158. In the case of GGCCGGCAUGGUCACAGCCUCCUCGCUGGCGCCGGCUGGGCAACAUUCCGAGGGGACUGUCCCCUCGGUAAUGGCGAAUGGGACCCA [C14A C58U] it was 0.705; in that of GGCCGGCAUGGUCCGAGCCUCCUCGCUGGCGCCGGCUGGGCAACAUUCCGAGGGGACCGUCCCGUCGGUAAUGGCGAAUGGGACCCA [C15G C64G], 0.415. In the case of GCCCGGCAUGGUCCCAGCCUCCUCGCUGGCGCCGGCUGGGCAACAUUCCGAGGGGACCGUCCCCUCGGUAAUGGCGAAUGGGAGCCA [G2C C84G], the self-cleavage is 0.0639.

On to GGCCGGCAUGGUCCCAGCCUCCUCGCUGGCGUCGGCUGGGCAACAGUCCGAGGGGACCGUCCCCUCGGUAAUGGCGAAUGGGACCCA [C32U U46G], for which the self-cleavage came out at 0.646. Turning to GGCCGGCAUGGUCCCAGCCUCCCCGCUGGCGCCGGCUGGGCAACAUUCCGAUGGGACCGUCCCCUCGGUAAUGGCGAAUGGGACCCA [U23C G52U], the self-cleavage was 1.11.

Regarding GGCCGGCAUGGCCCCAGCCUCCUCGCUGGCGCCGGCUGGGCAACAUUCCUAGGGGACCGUCCCCUCGGUAAUGGCGAAUGGGACCCA [U12C G50U], the self-cleavage was found to be 0.332.

As to GGCCGGCAUGGACCCAGCCUCCUGGCUGGCGCCGGCUGGGCAACAUUCCGAGGGGACCGUCCCCUCGGUAAUGGCGAAUGGGACCCA [U12A C24G], the self-cleavage came out at 0.0437. In the case of GGCCGGCAUGGUCCCAGCCUCCUCGCUGGCGCCGGCUGGGCAACCUUCCGAGGGGACCGUCCCCUCGGUAUUGGCGAAUGGGACCCA [A45C A71U] it was 1.09; in that of UACCGGCAUGGUCCCAGCCUCCUCGCUGGCGCCGGCUGGGCAACAUUCCGAGGGGACCGUCCCCUCGGUAAUGGCGAAUGGGACCCA [G1U G2A], 0.262. Under GGCCGGCAUGGUCCCAGCCUCUUCGUUGGCGCCGGCUGGGCAACAUUCCGAGGGGACCGUCCCCUCGGUAAUGGCGAAUGGGACCCA [C22U C26U] stands 0.847; under GGCCGGCAUGGUCCCAGCCUCCUCGCUGGCGUCGGCUGGGCAACAUUCCGAGGGGACCUUCCCCUCGGUAAUGGCGAAUGGGACCCA [C32U G59U], 0.795; under GGCCGGCAUGGUCCCAGCCUCCUUGCUGGCGCCGGCUGGGCAACAUUCCGAGGGGACCGUCCCCUCGGUAAUGGCGAAUUGGACCCA [C24U G80U], 0.102.

On to GGCCGGCAUGGUUCCAGCCUCCUCGCUGGCGCCGGCUGGGCAACAUUCCGAGGGGACCGUCCCCUCGGUAAUGGCGAAUGGGACCCG [C13U A87G], for which the self-cleavage came out at 0.634. As to GGCCGGCAUGGUCCCAGCCUCCUCGCUGGCGCCGGCUGGGCAACAUUCCGAGGGGACCGUCCCCUCGGUCAUGGCGAAUGGGACGCA [A70C C85G], the self-cleavage is 1.2.

Consider AGCCGGCAUGGUCCCAGCCUCCUCGCUGGCGCCGGCUGGGCAACAUCCCGAGGGGACCGUCCCCUCGGUAAUGGCGAAUGGGACCCA [G1A U47C], for which the self-cleavage stood at 0.128. In the case of GGCCGGCAUGGUCCCAGGCUCCUCGCUGGCGCCGGCUGUGCAACAUUCCGAGGGGACCGUCCCCUCGGUAAUGGCGAAUGGGACCCA [C18G G39U] it was 0.0554.
